According to the PETadex activity labels:

B1: unnamed (protein)
chain: MKSTQGSKFALSLLTAGTLLFSMSALGFNAPDPDPQPDPDPCEGDCGYTRGPDPTTSLLEASSGPYSVRTDSVSSRVSGFSGGTIYYPTGTSGRMGAIVVAPGFLSPESSISWWGPRLASHGFVVITVQINSGYDQPASRQAQMDAALDHVISESNSSSSPISGMVDSSRLGAMGWSMGGGGALRMAAGDRLSAAIPLAPWHSGRDNFDQIRTPTLIFACENDSVAPVRSHASPFYNDIPNSTSKAFFEINGGSHTCANGGRSNGDLLGRIGVSWMKRHIDQDTRYNQFLCGPNHESDGDISEYRGTCPL
B2: unnamed (protein)
chain: MKTSRTRRLALAAAALLLSVAAQAQSSNPYQRGPDPTAASLEASSGPFAVSTTTVSSASGFGGGTIYYPTNTEGPFAAIAVVPGFTGTQSSISWWGPRLASHGFVVITIDTNSTFDQPDSRATQLMAALNYVVSQSNTSSSPIYGKVDSNRLGVMGHSMGGGGTLIAARDNPTLKAAIPLAPWNSSTNFSSVTVPTLIIACENDTVAPVSSHASPFYNSIPSSTDKAYLEINGGDHFCANSGNSNKAILGKYGVAWMKRFLDNDTRYDPFLCGAPHQADGSAISEYRDNCPY
B3: unnamed (protein)
chain: MKITAHKTARGVANFAKASLFVAALAVTSLANAQYQKGPDPTVSALERNGSFATRSTTVSRLSASGFGGGTIYYPTASGSYGAIAVSPGFTAYQSSISWIGERLSSHGFVVITIDTITTSDQPESRGNQLKAALDKVVSLSRTSSSPLYNKVDASRLGVAGHSMGGGGTLAAARDNPSYKAAVPLAPWHTTKSWSRVSVPTLIIGGSTDAIAGVALHSIPFYTSLPSSTKKAYMELSGEGHFYPQLPSNYPIVGRYMISWFKRFMDSDTRYSPFLCGAQHQADLRLFGPFSDYRENCPY
B4: unnamed (protein)
chain: MRALLSPTRRRLMTRVSTLSTLPLRRVLCSLALSAVAAAASAQTAPPTSASLNATAGPLAVSSVAISGATGFGGGTIYYPQAAGSYGVIAISPGYGARGSSLAWLARRLATHGFVVAAINTTSTMDSPPSRGPQLMAALDHVVNKADANVRSRADGSRMAVMGHSAGGGGALVAARDNPTLKAAVALTPGSFGNFYSGVRVPTIIFGADGDTITPVTSQARPAYNSIPVTTPKAYGELNNATHLTPVSTNTPIGRYSVAWAKRFVDGDTRYS
B5: unnamed (protein)
chain: MKRTLSLRRLWQAMAACASLCIAAAASAQVGPDPTSAGLEASAGPFTVSTSSVSSYVRGFGGGTIYYPSAAGQYGVVAISPGFTATQSSVAWLGRRLASHGLVVITINTNSVFDMPASRATQLMAALNHVVSGASSTIRSRVDSTRLAVSGHSMGGGGALIAAQNNPTLRASLPLTPWNNATNFDTVRVPTLIFGADGDTVASASSHARPFYASLPATTLKAYAELNNANHSTPNSTNTPIGRYSVAWMKRFVDADARYSPFLCGEPHRTYATPAVFDRYNQNCPY
B6: unnamed (protein)
chain: MATFNQLMHWSLAGLAVSMLGACGGGGGGGTPDAPPVMTPAPLPAPIPAPLPPLPPPPPAPTACTTSCRGADPTPASVEADAGPYAVATLALTQANGAAAMVYYPTGSSESFGAVVTMPGWDGDQSNLQWLGPRLASNGFVVINVDTPARRGDFPDARARFGVQALDQVVTLSATPGNALSGKVDAARLGMVGHSMGGGAALVAARDHPGLFKAVVPLSPWYDQATRDFPSATPALVFVCTGDMTASVAGYALPVYDSLRSHKAYVEAAHVPVPGGDAHNCVRTGVANRPKLGKTVVSWLKLWLDGDPRYLPFVCGAQNPGTDAGFTNVWRSSCPF
B7: unnamed (protein)
chain: MTLTSTLRRQTRTTATATVLAAAAALALCAAPASAQQTGPNPTSSSLNATSGPFAVSSVSVVAPTGFGGGTIYYPTTAGQYGVVAISPGFTATESSIAWLGRRMATHGFVVVTINTLTTLDQPASRATQLMAALNHVVNSASSTVRSRVDPNRRAVAGHSMGGGGALIAAENNPGLKAALPLTPWNLTTNFSDVQVPTLIVGADGDTVAPAAIHARPFYASLSSSVRKAYAELNFSTHFTPNTTNTPIGRYGVTWMKRFVDGDTRYSTFLCGAEHNAYNTALVFERYSQNCPY
B8: unnamed (protein)
chain: MTIRPFVRNAVLAAGLLVGAASAQAQVAVFQENFSNGLGAFTASGTVSTGTGAARLQGCYGCTDGQIVSSAISTQGFTNLSLSFDRVTSGLYIGESGTAEFSVDGTNWTVVESTRVTSPGRVTFDLPASAAGQAALRLRFRIDARLSSETYTVDNVELTGTVGDTGGGTPGANPYAKGPDPTVALLEAGTGPFTYTRTTVSRTAASGYGGGTIYHPTGVAGPFGAIAISPGYTAYQSSISWLGERLASHGFVVITIDTFTTSDQPSSRATQLMAALRQLVAYGNTSSHPIYGKVDPNRLGVMGHSMGGGGSLIAARDNPSLKAAVPLTPWNTSSNFTAVQVPTLVVGCEADTVAPVAQHASPFYNNIPSTTKKAYLELANASHFCPVTGNGYTRLLGKYGVAWMKRFVDNDTRYSPFLCGAPHRADLSNGQLSAYRENCPY
B9: unnamed (protein)
chain: MRKLLRRGPMRLLAVGLVIAVGVLATACDWRGPEPSDQLLTGTGPFGIGTISVPASAGFGGGTIYYPTGNPGPFAVVSFSPGFLEQSGAFPGWGNKLASHGFVAILFNTSNTGEFPDARSTEQRQALTYVINQGQNPSSPIFGLVDGNRTAVMGHSMGGGASLISAQADHTIDAVIPVAPWNGGTNFSGITSPTLVVACQSDSTAPVNSHASPFYNSIPSTTKKEYLSVAGGDHFCANDPSLVGGGNIGKYAVAFLKRWLDTDTRYDPWTCGASKATAGSVFNEVRSTCPW
B10: unnamed (protein)
chain: MNSHRASRLVRAALAAGALLLSAAASAQTNPYQRGPNPTASSLEASRGPFSVRSFTVSRPSGYGAGTVYYPTNAGGTVGAIAIVPGFTARQSSINWWGPRLASHGFVVITIDTNSTLDQPSSRSSQQMAALRQVATLSGTSSSPIYNKVDTSRLGVMGWSMGGGGSLISARNNPSLKAAAPQAPWNSSTNFSSVTVPTLIIACENDTIAPVNSHASPFYNSMSRNPKQFLEINGGSHSCANSGNSNQALLGKKGVAWMKRFMDNDTRYTSFACSNPNSTRVSDFRVASCS
B11: unnamed (protein)
chain: MHETNTRVRAGRACGCARAVRRVERGRVGRGRCLMRYRAFAWWWVCACLLLACGDTSGGNADETGPVTGQQPAAGASGQSASGTGGGTPAMPMSGGTSAGSAGRAGSAGMPPPAAGMGSMAGEGGTAGTDADAGASGVGGSAGGTSGVGGSAGSAGEGPDPEGPDPTTESASRAGPLNVESIPWTEFRNGPDFAGGTIWYPTDGEPPYPFVAIVPGFTAYESSIRSWGPFLASHNIVAITIDTNTTADQPPTRAAALLDALESVAAENSRSGSPLMDKLDESRQALMGWSMGGGGTLIAANRTPSLKAAISLCGWNPLGSYSMMTVPSLMFASLGDPLAGGQSQGFYRSIPDTTPKMLIEAGVADHFVANNPAYLNGLIGRYGLSWLKVFMVGDERYRQFLLEMPQGTTDYASNVE
B12: unnamed (protein)
chain: MSAADRMCPFRTLLMLLGLSMMARPTRASMRRRGRHSSITTGDSMTHIAIGLRHWAQVAVLLASVAMSALAAAQNNPYAKGPDRTTADLEAELGSFAVASASIPRANASGFGGGTIYYPTASGSCGAISISPGYTATQVNIAWLGPRLASRGFVVITIDTFTTSDLPDSRATQLQAALNQAVSLSQTAGHVIYGKVDARRLAVAGDSLGGGGALLAGLNNPMLKAAVGLVPYSYTQNFSTEQVPTLMIGGQKDTTATPSKHAIAFYNSIPSTTDKAYMELAGADHYLPHRTQYFPVIGRYMIAWYKRFVDNDTRYSPFLCGAIQQADVANTALVSKYLQNCSY
B13: unnamed (protein)
chain: MRSSHVRIKKDKRATRMRSAPVSAREPTSARRVTHAQRADPLDRQRRQPMRFQQHASRLIKASILGSLVVLSAAATAQTNPFARGPNPTASALEATSGPFTVRNFTVSRPSGYGAGTVYYPTNAGGTVGAIAIVPGYTARQSSINWWGPRLASHGFVVITIDTNSTLDQPGSRSSQQMAALRQVVSLNGTSSSPIYNKVDTSRLGVMGWSMGGGGSLISAANNPSLKAAAPQAPWNTSTNFSSLTVPTLIFACENDSIAATRSHASPMYNSMRNNPRQYLEITRGSHSCANSGNSDRGLLGKKGVAWMKRYMDNDTRYTTFACQNPNTSRVSDFRVANCS
B14: unnamed (protein)
chain: MPDADTGRRANRCGAGNPAEGNPVITTRKRLVRRLAALVLVAFALVACDIKGPDPTDAILTASSGPFGVGTLAVPTSAGFGGGTIYYPTGVDGPFAVISVAPGFTETASAVAEWGPRLASHGFVTIVFNTSNTFENPSTRSTEQRQALTYTINQSNTAGSPIAGLVDGNRRGVAGHSMGGGGTLISEQADSTIRAGVPLAPWNTSPDFPDITVPTLFLACQNDSIAPVANHASPMYESIPATTHKSFVSFAGGDHFCANSPTGGSSNAGKFAVAFFKKFLDGDTRYDPWVCGASKPAVNSAINEVRSTCPF

The proteins below were run on BHET. Conditions: 120 h.
For B1, the plate clearing was “not clears the plate”.
B2 was tested, and the plate clearing was “clears the plate (z > 3 vs empty vector)”.
With B3 the plate clearing was “not clears the plate”.
In the case of B4, the plate clearing is reported as “not clears the plate”.
For B5, the plate clearing was “not clears the plate”.
For B6, the plate clearing was “not clears the plate”.
B7 was tested, and the plate clearing was “not clears the plate”.
For B8, the plate clearing was “clears the plate (z > 3 vs empty vector)”.
For B9, the plate clearing was “not clears the plate”.
B10 was tested, and the plate clearing was “not clears the plate”.
For B11, the plate clearing was “not clears the plate”.
With B12 the plate clearing was “not clears the plate”.
In the case of B13, the plate clearing is reported as “not clears the plate”.
With B14 the plate clearing was “not clears the plate”.
